Laboratory results taken from patent publication US20200369770A1 (NANJING LEGEND BIOTECH, published 2020).

T1: human LAG-3 expressed on CHO cells (human, UniProt P18627 29-525)
T1 construct: also called CHO cells expressing human LAG-3
T1 sequence: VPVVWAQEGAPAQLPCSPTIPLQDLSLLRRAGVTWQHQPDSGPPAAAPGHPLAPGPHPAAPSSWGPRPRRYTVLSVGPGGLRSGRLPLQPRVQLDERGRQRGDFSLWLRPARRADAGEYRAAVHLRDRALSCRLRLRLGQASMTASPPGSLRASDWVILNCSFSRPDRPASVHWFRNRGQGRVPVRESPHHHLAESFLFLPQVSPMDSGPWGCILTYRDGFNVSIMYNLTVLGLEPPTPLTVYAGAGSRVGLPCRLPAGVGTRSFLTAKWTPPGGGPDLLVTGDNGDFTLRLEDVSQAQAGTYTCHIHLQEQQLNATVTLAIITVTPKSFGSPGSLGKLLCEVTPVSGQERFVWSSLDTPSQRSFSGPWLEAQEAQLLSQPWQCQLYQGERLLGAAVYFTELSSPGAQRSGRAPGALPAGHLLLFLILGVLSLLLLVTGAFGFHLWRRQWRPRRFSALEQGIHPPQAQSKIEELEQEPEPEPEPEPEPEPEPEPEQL

T2: His-tagged LAG-3 protein (Homo sapiens (Human), UniProt P18627 29-450, limits assumed)
T2 construct: SPR analyte; not shown: His tag
T2 sequence: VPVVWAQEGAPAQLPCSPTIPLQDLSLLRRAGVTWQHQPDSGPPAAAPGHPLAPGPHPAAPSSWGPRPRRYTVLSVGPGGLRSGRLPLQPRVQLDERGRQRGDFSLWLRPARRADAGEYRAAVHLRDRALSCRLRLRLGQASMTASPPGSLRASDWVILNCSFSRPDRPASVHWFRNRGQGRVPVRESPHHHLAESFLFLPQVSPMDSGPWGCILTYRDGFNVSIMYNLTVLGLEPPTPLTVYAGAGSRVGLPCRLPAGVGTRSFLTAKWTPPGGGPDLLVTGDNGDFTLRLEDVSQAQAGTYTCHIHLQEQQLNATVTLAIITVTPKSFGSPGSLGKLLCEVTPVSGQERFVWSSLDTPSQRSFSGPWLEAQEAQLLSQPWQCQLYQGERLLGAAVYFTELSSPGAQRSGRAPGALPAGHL

T3: LAG-3 Fc fusion protein having a biotin-label (Homo sapiens (Human), UniProt P18627 29-450, limits assumed, biotin label (site not stated))
T3 construct: not shown: Fc
T3 sequence: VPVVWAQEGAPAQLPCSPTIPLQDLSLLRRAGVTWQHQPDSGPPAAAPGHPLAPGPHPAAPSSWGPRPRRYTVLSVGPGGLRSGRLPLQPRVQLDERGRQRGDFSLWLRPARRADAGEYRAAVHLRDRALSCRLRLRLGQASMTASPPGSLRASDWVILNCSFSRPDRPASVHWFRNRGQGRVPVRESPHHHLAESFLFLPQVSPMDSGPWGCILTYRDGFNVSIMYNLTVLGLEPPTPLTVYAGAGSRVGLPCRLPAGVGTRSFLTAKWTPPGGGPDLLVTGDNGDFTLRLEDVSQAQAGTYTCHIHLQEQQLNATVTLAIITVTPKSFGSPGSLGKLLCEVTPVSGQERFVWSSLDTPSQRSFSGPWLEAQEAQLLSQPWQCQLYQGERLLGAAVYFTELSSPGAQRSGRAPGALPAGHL

T4: human TIGIT expressed on CHO cells (human, UniProt Q495A1 22-244)
T4 construct: also called CHO cells expressing human TIGIT
T4 sequence: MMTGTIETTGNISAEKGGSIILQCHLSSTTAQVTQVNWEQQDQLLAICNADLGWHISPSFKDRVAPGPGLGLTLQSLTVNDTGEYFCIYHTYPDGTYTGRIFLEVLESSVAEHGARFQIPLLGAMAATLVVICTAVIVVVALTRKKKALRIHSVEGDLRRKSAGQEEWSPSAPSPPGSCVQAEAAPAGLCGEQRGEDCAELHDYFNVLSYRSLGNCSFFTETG

T5: His-tagged TIGIT protein (Homo sapiens (Human), UniProt Q495A1 22-141)
T5 construct: SPR analyte; not shown: His tag
T5 sequence: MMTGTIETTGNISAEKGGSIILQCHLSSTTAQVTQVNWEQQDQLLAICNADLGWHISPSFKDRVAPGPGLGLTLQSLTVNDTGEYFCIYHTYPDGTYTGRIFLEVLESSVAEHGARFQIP


Legend:
[1] = target: T1, human LAG-3 expressed on CHO cells; test: FACS on CHO cells expressing human LAG-3; column LAG-3 / Cell binding (EC50 nM)
Description: (§1) The mixture was equilibrated for 30 minutes at room temperature, and washed three times with FACS buffer (PBS containing 1% BSA). FITC-conjugated anti-human Fc antibody (Jackson ImmunoResearch) used as secondary antibody was then added and incubated for 15 minutes at room temperature. Cells were washed again with FACS buffer and analyzed by flow cytometry. Data was analyzed with PRISM™ (GraphPad Software, San Diego, Calif.) using non-linear regression, and EC₅₀ values were calculated.

His-tagged LAG-3 protein = target: T2, His-tagged LAG-3 protein; test: SPR (BIACORE T200), His-tagged LAG-3 as analyte over immobilized binder; column LAG-3 / Affinity (nM)
Description: Binding curves at different analyte concentrations were used to calculate the kinetic parameters kₒₙ, koff and Kd (FIGS. 14A-14K).

[2] = target: T3, LAG-3 Fc fusion protein having a …; test: FACS competition, binding of biotinylated LAG-3 Fc to MHC class II on A375 cells blocked; column LAG-3 / Ligand competition (IC50 nM)
Description: as §1, with “Each” for “The”, “PE/Cy5 Streptavidin” for “FITC-conjugated anti-human Fc antibody (Jackson ImmunoResearch) used as”, “added to each mixture” for “added”, “Subsequently, the cells” for “Cells”, “IC₅₀” for “EC₅₀”

[3] = target: T4, human TIGIT expressed on CHO cells; test: FACS on CHO cells expressing human TIGIT; column TIGIT / Cell binding (EC50 nM)
Description: as §1, with “added and the mixture was incubated for” for “added and incubated for”, “cytometry. Data were analyzed with” for “cytometry. Data was analyzed with”

His-tagged TIGIT protein = target: T5, His-tagged TIGIT protein; test: SPR (BIACORE T200), His-tagged TIGIT as analyte over captured binder; column TIGIT / Affinity (nM)
Description: Binding curves at different analyte concentrations were used to calculate the kinetic parameters kₒₙ, koff and Kd (FIGS. 13A-13K).

[4] = target: T4, human TIGIT expressed on CHO cells; test: FACS competition on CHO cells expressing human TIGIT, blocked ligand biotinylated hCD155 Fc; column TIGIT / Ligand competition (IC50 nM)
Description: as §1, with “Each” for “The”, “PE/Cy5 Streptavidin” for “FITC-conjugated anti-human Fc antibody (Jackson ImmunoResearch) used as”, “added to each mixture” for “added”, “Subsequently, the cells” for “Cells”, “IC₅₀” for “EC₅₀”

Binder | EC50 [1] [nM] | Kd (His-tagged LAG-3 protein) [nM] | IC50 [2] [nM] | EC50 [3] [nM] | Kd (His-tagged TIGIT protein) [nM] | IC50 [4] [nM]
VHH2 HCAb (antibody, human IgG4 S228P, V domains shown, positive control for LAG-3; also called anti-LAG-3 VHH2 HCAb) VH: EVQLVESGGGLVQPGGSLRLSCAASGYTVSSYCMGWFRQAPGKGREGVSAIDSDGSVSYADSVKGRFTISKDNSKNTLYLQMNSLRAEDTAVYFCAADLCWVDQDQGEYNTWGQGTLVTVSS | 1.82 | 0.45 | 11 |  |  | 
AS19584VH28 HCAb (antibody, human IgG4 S228P, V domains shown, positive control for TIGIT; also called anti-TIGIT AS19584VH28 HCAb) VH: EVQLVESGGGLVQPGGSLRLSCAASGYKYGVYSMGWFRQAPGKGLEGVSAICSGGRTTYSDSVKGRFTISRDNSNQILYLQMNSLRAEDTAVYYCAARPLWTGDCDLSSSWYKTWGQGTLVTVSS |  |  |  | 4.99 | 0.44 | 8.61
